Test results from patent US20260242839A1, “GLYCOSIDE PRODUCT BIOSYNTHESIS AND RECOVERY” (Manus Bio Inc., priority 2023, published 2026).

Tested on: steviol glycoside
Assay: steviol glycoside bioconversion by E. coli expressing individual mutations of UGT SEQ ID NO: 14
Assay type: cell-based
Settings: fold improvement of % conversion vs parent UGT SEQ ID NO: 14; stevia leaf extract and glucose fed; 37° C., 48 hr
Experimental: Fold improvement is with respect to % steviol glycoside conversion of the parent UGT enzyme of SEQ ID NO: 14. The UGT enzyme of SEQ ID NO: 15 has the following mutations from SEQ ID NO: 14: ins_A2_T3_RR, H59P, A238E, L417F. Stevia leaf extract and glucose were fed to the bioconversion strains. Bioconversion took place at 37° C. for 48 hr. Data were quantified by reverse phase LC DAD to quantify conversion of steviol glycosides.
Fold improvement (FI) is with respect to % steviol glycoside conversion.

Row | Molecule | FI %Stevioside→rebE | FI %rebA→rebD
1 | I152L: mutation to UGT enzyme of SEQ ID NO: 14 (protein) MATKNSSGMSLAERFWLTLSRSSLVVGRSCVEFEPETVPLLSTLRGKPITFLGLMPPLHEGRREDGEDATVRWLDAQPAKSVVYVALGSEVPLGVEKVHELALGLELAGTRFLWALRKPTGVSDADLLPAGFEERTRGRGVVATRWVPQMSLLAHAAVGAFLTHCGWNSTIEGLMFGHPLIMLPITGDQGPNARLIEAKNAGLQVARNDGDGSFDREGVAAAIRAVAVEEESSKVFQAKAKKLQEIVADMACHERYIDGFIQQLRSYKDDSGYSSSYAAAAGMHVVICPWLAFGHLLPCLDLAQRLASRGHRVSFVSTPRNISRLPPVRPALAPLVAFVALPLPRVEGLPDGAESTNDVPHDRPDMVELHRRAFDGLAAPFSEFLGTACADWVIVDSFHHWAAAAALEHKVPCAMMLLGSAEMIASIADERLEHAETESPAAAGQGRPAAAPTFEVARMKLIR | 1.09 | 1.15
2 | T43D: mutation to UGT enzyme of SEQ ID NO: 14 (protein) MATKNSSGMSLAERFWLTLSRSSLVVGRSCVEFEPETVPLLSDLRGKPITFLGLMPPLHEGRREDGEDATVRWLDAQPAKSVVYVALGSEVPLGVEKVHELALGLELAGTRFLWALRKPTGVSDADLLPAGFEERTRGRGVVATRWVPQMSILAHAAVGAFLTHCGWNSTIEGLMFGHPLIMLPITGDQGPNARLIEAKNAGLQVARNDGDGSFDREGVAAAIRAVAVEEESSKVFQAKAKKLQEIVADMACHERYIDGFIQQLRSYKDDSGYSSSYAAAAGMHVVICPWLAFGHLLPCLDLAQRLASRGHRVSFVSTPRNISRLPPVRPALAPLVAFVALPLPRVEGLPDGAESTNDVPHDRPDMVELHRRAFDGLAAPFSEFLGTACADWVIVDSFHHWAAAAALEHKVPCAMMLLGSAEMIASIADERLEHAETESPAAAGQGRPAAAPTFEVARMKLIR | 1.29 | 1.08
3 | R145S: mutation to UGT enzyme of SEQ ID NO: 14 (protein) MATKNSSGMSLAERFWLTLSRSSLVVGRSCVEFEPETVPLLSTLRGKPITFLGLMPPLHEGRREDGEDATVRWLDAQPAKSVVYVALGSEVPLGVEKVHELALGLELAGTRFLWALRKPTGVSDADLLPAGFEERTRGRGVVATSWVPQMSILAHAAVGAFLTHCGWNSTIEGLMFGHPLIMLPITGDQGPNARLIEAKNAGLQVARNDGDGSFDREGVAAAIRAVAVEEESSKVFQAKAKKLQEIVADMACHERYIDGFIQQLRSYKDDSGYSSSYAAAAGMHVVICPWLAFGHLLPCLDLAQRLASRGHRVSFVSTPRNISRLPPVRPALAPLVAFVALPLPRVEGLPDGAESTNDVPHDRPDMVELHRRAFDGLAAPFSEFLGTACADWVIVDSFHHWAAAAALEHKVPCAMMLLGSAEMIASIADERLEHAETESPAAAGQGRPAAAPTFEVARMKLIR | 1.06 | 1.14
4 | H99T: mutation to UGT enzyme of SEQ ID NO: 14 (protein) MATKNSSGMSLAERFWLTLSRSSLVVGRSCVEFEPETVPLLSTLRGKPITFLGLMPPLHEGRREDGEDATVRWLDAQPAKSVVYVALGSEVPLGVEKVTELALGLELAGTRFLWALRKPTGVSDADLLPAGFEERTRGRGVVATRWVPQMSILAHAAVGAFLTHCGWNSTIEGLMFGHPLIMLPITGDQGPNARLIEAKNAGLQVARNDGDGSFDREGVAAAIRAVAVEEESSKVFQAKAKKLQEIVADMACHERYIDGFIQQLRSYKDDSGYSSSYAAAAGMHVVICPWLAFGHLLPCLDLAQRLASRGHRVSFVSTPRNISRLPPVRPALAPLVAFVALPLPRVEGLPDGAESTNDVPHDRPDMVELHRRAFDGLAAPFSEFLGTACADWVIVDSFHHWAAAAALEHKVPCAMMLLGSAEMIASIADERLEHAETESPAAAGQGRPAAAPTFEVARMKLIR | 0.76 | 1.04
5 | G94R: mutation to UGT enzyme of SEQ ID NO: 14 (protein) MATKNSSGMSLAERFWLTLSRSSLVVGRSCVEFEPETVPLLSTLRGKPITFLGLMPPLHEGRREDGEDATVRWLDAQPAKSVVYVALGSEVPLRVEKVHELALGLELAGTRFLWALRKPTGVSDADLLPAGFEERTRGRGVVATRWVPQMSILAHAAVGAFLTHCGWNSTIEGLMFGHPLIMLPITGDQGPNARLIEAKNAGLQVARNDGDGSFDREGVAAAIRAVAVEEESSKVFQAKAKKLQEIVADMACHERYIDGFIQQLRSYKDDSGYSSSYAAAAGMHVVICPWLAFGHLLPCLDLAQRLASRGHRVSFVSTPRNISRLPPVRPALAPLVAFVALPLPRVEGLPDGAESTNDVPHDRPDMVELHRRAFDGLAAPFSEFLGTACADWVIVDSFHHWAAAAALEHKVPCAMMLLGSAEMIASIADERLEHAETESPAAAGQGRPAAAPTFEVARMKLIR | 1.12 | 1.13
6 | C299A: mutation to UGT enzyme of SEQ ID NO: 14 (protein) MATKNSSGMSLAERFWLTLSRSSLVVGRSCVEFEPETVPLLSTLRGKPITFLGLMPPLHEGRREDGEDATVRWLDAQPAKSVVYVALGSEVPLGVEKVHELALGLELAGTRFLWALRKPTGVSDADLLPAGFEERTRGRGVVATRWVPQMSILAHAAVGAFLTHCGWNSTIEGLMFGHPLIMLPITGDQGPNARLIEAKNAGLQVARNDGDGSFDREGVAAAIRAVAVEEESSKVFQAKAKKLQEIVADMACHERYIDGFIQQLRSYKDDSGYSSSYAAAAGMHVVICPWLAFGHLLPALDLAQRLASRGHRVSFVSTPRNISRLPPVRPALAPLVAFVALPLPRVEGLPDGAESTNDVPHDRPDMVELHRRAFDGLAAPFSEFLGTACADWVIVDSFHHWAAAAALEHKVPCAMMLLGSAEMIASIADERLEHAETESPAAAGQGRPAAAPTFEVARMKLIR | 0.76 | 1.03
7 | D269R: mutation to UGT enzyme of SEQ ID NO: 14 (protein) MATKNSSGMSLAERFWLTLSRSSLVVGRSCVEFEPETVPLLSTLRGKPITFLGLMPPLHEGRREDGEDATVRWLDAQPAKSVVYVALGSEVPLGVEKVHELALGLELAGTRFLWALRKPTGVSDADLLPAGFEERTRGRGVVATRWVPQMSILAHAAVGAFLTHCGWNSTIEGLMFGHPLIMLPITGDQGPNARLIEAKNAGLQVARNDGDGSFDREGVAAAIRAVAVEEESSKVFQAKAKKLQEIVADMACHERYIDGFIQQLRSYKRDSGYSSSYAAAAGMHVVICPWLAFGHLLPCLDLAQRLASRGHRVSFVSTPRNISRLPPVRPALAPLVAFVALPLPRVEGLPDGAESTNDVPHDRPDMVELHRRAFDGLAAPFSEFLGTACADWVIVDSFHHWAAAAALEHKVPCAMMLLGSAEMIASIADERLEHAETESPAAAGQGRPAAAPTFEVARMKLIR | 2.0 | 1.7
8 | L417F: mutation to UGT enzyme of SEQ ID NO: 14 (protein) MATKNSSGMSLAERFWLTLSRSSLVVGRSCVEFEPETVPLLSTLRGKPITFLGLMPPLHEGRREDGEDATVRWLDAQPAKSVVYVALGSEVPLGVEKVHELALGLELAGTRFLWALRKPTGVSDADLLPAGFEERTRGRGVVATRWVPQMSILAHAAVGAFLTHCGWNSTIEGLMFGHPLIMLPITGDQGPNARLIEAKNAGLQVARNDGDGSFDREGVAAAIRAVAVEEESSKVFQAKAKKLQEIVADMACHERYIDGFIQQLRSYKDDSGYSSSYAAAAGMHVVICPWLAFGHLLPCLDLAQRLASRGHRVSFVSTPRNISRLPPVRPALAPLVAFVALPLPRVEGLPDGAESTNDVPHDRPDMVELHRRAFDGLAAPFSEFLGTACADWVIVDSFHHWAAAAALEHKVPCAMMFLGSAEMIASIADERLEHAETESPAAAGQGRPAAAPTFEVARMKLIR | 1.34 | 1.24
9 | P39T: mutation to UGT enzyme of SEQ ID NO: 14 (protein) MATKNSSGMSLAERFWLTLSRSSLVVGRSCVEFEPETVTLLSTLRGKPITFLGLMPPLHEGRREDGEDATVRWLDAQPAKSVVYVALGSEVPLGVEKVHELALGLELAGTRFLWALRKPTGVSDADLLPAGFEERTRGRGVVATRWVPQMSILAHAAVGAFLTHCGWNSTIEGLMFGHPLIMLPITGDQGPNARLIEAKNAGLQVARNDGDGSFDREGVAAAIRAVAVEEESSKVFQAKAKKLQEIVADMACHERYIDGFIQQLRSYKDDSGYSSSYAAAAGMHVVICPWLAFGHLLPCLDLAQRLASRGHRVSFVSTPRNISRLPPVRPALAPLVAFVALPLPRVEGLPDGAESTNDVPHDRPDMVELHRRAFDGLAAPFSEFLGTACADWVIVDSFHHWAAAAALEHKVPCAMMLLGSAEMIASIADERLEHAETESPAAAGQGRPAAAPTFEVARMKLIR | 1.31 | 0.98
10 | V31P: mutation to UGT enzyme of SEQ ID NO: 14 (protein) MATKNSSGMSLAERFWLTLSRSSLVVGRSCPEFEPETVPLLSTLRGKPITFLGLMPPLHEGRREDGEDATVRWLDAQPAKSVVYVALGSEVPLGVEKVHELALGLELAGTRFLWALRKPTGVSDADLLPAGFEERTRGRGVVATRWVPQMSILAHAAVGAFLTHCGWNSTIEGLMFGHPLIMLPITGDQGPNARLIEAKNAGLQVARNDGDGSFDREGVAAAIRAVAVEEESSKVFQAKAKKLQEIVADMACHERYIDGFIQQLRSYKDDSGYSSSYAAAAGMHVVICPWLAFGHLLPCLDLAQRLASRGHRVSFVSTPRNISRLPPVRPALAPLVAFVALPLPRVEGLPDGAESTNDVPHDRPDMVELHRRAFDGLAAPFSEFLGTACADWVIVDSFHHWAAAAALEHKVPCAMMLLGSAEMIASIADERLEHAETESPAAAGQGRPAAAPTFEVARMKLIR | 1.22 | 1.08
